Consider 1 substance from US20260049148A1, “PROTEASE-CLEAVABLE MOIETIES AND METHODS OF USE THEREOF” (CytomX Therapeutics, Inc., priority 2022, published 2026).

Holding throughout (assay): Internally quenched peptide probe cleavage assay
Common to all, as to format: biochemical
Details in all cases: 20 μM internally quenched peptide probe, 20 nM protease, 37° C.

One test addresses MMP9 (Homo sapiens, UniProt P14780). The text has this:
(§1) The study provided herein evaluated the cleavability kinetics (i.e., pM/s and kcat/KM (M^−1s^−1)) of CMs with matrix metalloprotease (MMP) 2 (MMP2), MMP9, and MMP14. The CM AIALY (SEQ ID NO: 5) was presented in an internally quenched peptide probe format, rather than included in an activatable antibody format. In the internally quenched probe, the CM sequence was positioned between a 7-methoxycoumarin-4-acetyl (MCA) fluorophore and a 2,4-dinitrophenyl (DNP) quencher such that cleavage of the CM sequence produces a fluorescence signal. The probe was of the following design: (MCA)-[…](DNP)-D-Arg (SEQ ID NO: 160). The cleavage rates (pM/s) were measured using 20 μM internally quenched peptide probe and 20 nM MMP2, MMP9, or MMP14. Cleavability kinetics (i.e., pM/s and kcat/KM (M^−1s^−1)) were determined in 96- or 384-well plate format at 37° C. in the following buffers: 50 mM Tris-HCl (pH 7.5), 10 mM CaCl2), 150 mM NaCl, 0.05% (w/v) Brij-35 for MMP2 and MMP9 or 50 mM HEPES (pH 6.8), 10 mM CaCl2), 0.5 mM MgCl2, 0.05% (w/v) Brij-35 for MMP14. Cleavability kinetics were determined on an Infinite 200 PRO (Tecan) multimode plate reader using a fluorescence excitation wavelength of 320 nm and an emission wavelength of 405 nm.

The target of a further test is T1, MMP2 (Homo sapiens, UniProt P08253).
T1 sequence (P08253 110-660): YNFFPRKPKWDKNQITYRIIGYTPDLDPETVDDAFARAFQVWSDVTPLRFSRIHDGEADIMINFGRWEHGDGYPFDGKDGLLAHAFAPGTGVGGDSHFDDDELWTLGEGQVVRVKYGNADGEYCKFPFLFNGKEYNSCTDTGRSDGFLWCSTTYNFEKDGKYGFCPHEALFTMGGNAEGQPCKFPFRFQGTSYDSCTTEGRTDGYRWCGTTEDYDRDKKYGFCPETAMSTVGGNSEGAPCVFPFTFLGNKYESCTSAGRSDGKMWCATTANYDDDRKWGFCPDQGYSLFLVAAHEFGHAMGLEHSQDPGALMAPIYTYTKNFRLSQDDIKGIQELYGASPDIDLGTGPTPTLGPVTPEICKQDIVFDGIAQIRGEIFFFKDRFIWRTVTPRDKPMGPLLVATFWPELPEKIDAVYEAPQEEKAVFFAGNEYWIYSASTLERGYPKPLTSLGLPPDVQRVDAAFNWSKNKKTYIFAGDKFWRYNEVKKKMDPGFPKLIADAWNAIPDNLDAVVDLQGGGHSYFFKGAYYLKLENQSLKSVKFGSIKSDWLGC
From the text: as §1

Another test has as its target MMP14 (Homo sapiens, UniProt P50281).
From the text: as §1

Square brackets hold non-standard residues; d marks the D form. Ends that are not written are not given here. * marks the point of attachment. Dnp = O=[N+]([O-])c1ccc(*)c([N+](=O)[O-])c1; Mca = COc1ccc2c(CC(=O)*)cc(=O)oc2c1

Sequence of MMP9 (P14780 94-707): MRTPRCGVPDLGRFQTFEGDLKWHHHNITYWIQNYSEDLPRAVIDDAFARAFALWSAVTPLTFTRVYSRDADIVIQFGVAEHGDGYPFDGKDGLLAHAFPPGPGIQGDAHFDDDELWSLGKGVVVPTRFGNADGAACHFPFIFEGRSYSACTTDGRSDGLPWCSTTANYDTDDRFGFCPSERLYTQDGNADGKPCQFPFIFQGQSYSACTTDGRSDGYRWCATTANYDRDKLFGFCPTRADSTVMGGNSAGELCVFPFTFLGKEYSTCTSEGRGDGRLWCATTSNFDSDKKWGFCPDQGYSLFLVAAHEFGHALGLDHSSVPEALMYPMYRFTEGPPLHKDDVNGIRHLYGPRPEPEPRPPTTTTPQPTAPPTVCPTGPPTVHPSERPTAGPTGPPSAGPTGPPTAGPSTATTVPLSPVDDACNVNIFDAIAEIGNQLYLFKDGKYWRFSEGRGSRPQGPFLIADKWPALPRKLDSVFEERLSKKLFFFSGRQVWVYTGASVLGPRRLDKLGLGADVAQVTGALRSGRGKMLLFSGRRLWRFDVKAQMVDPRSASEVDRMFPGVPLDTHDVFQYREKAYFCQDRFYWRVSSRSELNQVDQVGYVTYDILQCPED

Consider “(MCA)-Gly-Ser-Ala-Ile-Ala-Leu-Tyr-Gly-Gly-Ser-Lys (DNP)-D-Arg (Mca-GSAIALYGGSK(Dnp)[dR])”, for which the “Probe Cleavage (pM/s) MMP9” value with MMP9 worked out at 87.7 pM/s. Moreover, the “Probe Cleavage (pM/s) MMP2” value with MMP2 is given as 135 pM/s. For the same substance, in the test with MMP14, the “Probe Cleavage (pM/s) MMP14” value was 145 pM/s.
